Measured values taken from patent US20250340631A1 (HARBOUR BIOMED SHANGHAI, published 2025).

Columns and labels:
human CLDN6 = molecular target: T1, human CLDN6 (human, UniProt P56747 1-220); assay: FACS on HEK293 cells transiently expressing human CLDN6
T1 construct: whole, on cells; also called hCLDN6
T1 sequence (looked up): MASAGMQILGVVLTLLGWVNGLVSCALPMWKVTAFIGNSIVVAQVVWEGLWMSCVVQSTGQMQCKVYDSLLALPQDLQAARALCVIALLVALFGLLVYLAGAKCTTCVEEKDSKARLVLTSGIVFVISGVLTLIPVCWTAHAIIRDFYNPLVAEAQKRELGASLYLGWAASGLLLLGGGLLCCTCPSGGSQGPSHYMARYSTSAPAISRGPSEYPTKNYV
Method: (§1) Antibodies were assayed for binding affinity to human CLDN18.2 paralogous proteins by FACS (ACEA NovoCyte). CLDN1, CLDN2, CLDN3, CLDN4, CLDN6 and CLDN9 genes of the human CLDN18.2 paralogous family were transiently transfected into HEK293 cells. […] The cell density was adjusted to 10⁶ cells/mL, and 50 μL of the cell suspension was added to each well of a 96-well plate. An antibody was diluted to 60 nM with FACS buffer, and 50 μL of the antibody dilution was added to each well of the 96-well plate. After 2 h of incubation at 4° C., the plate was washed twice with FACS buffer. Then, an FACS buffer containing a secondary antibody was added. After 1 h of incubation at 4° C., the plate was washed twice with FACS buffer. The cells were resuspended in fixative solution, and run FACS.

human CLDN18.2 [1] = molecular target: human CLDN18.2 (human); assay: cell-based or functional assay
[2] = molecular target: CLDN18.2 of SNU620 cells (methionine to leucine at amino acid 149) (human, UniProt P56856-2 1-261); assay: cell-based or functional assay
CLDN18.2 of SNU620 cells (methionine to leucine at amino acid 149), sequence (P56856 other isoform, or with tags, fused parts or gaps limits assumed): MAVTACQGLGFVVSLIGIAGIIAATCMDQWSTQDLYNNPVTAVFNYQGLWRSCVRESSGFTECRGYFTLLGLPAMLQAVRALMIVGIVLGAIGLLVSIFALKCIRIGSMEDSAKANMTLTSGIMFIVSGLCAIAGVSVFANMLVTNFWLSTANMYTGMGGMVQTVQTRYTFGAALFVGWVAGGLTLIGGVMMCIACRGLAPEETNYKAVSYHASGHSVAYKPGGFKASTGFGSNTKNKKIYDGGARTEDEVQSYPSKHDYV

human CLDN2 = molecular target: T2, human CLDN2 (human, UniProt P57739 1-230); assay: FACS on HEK293 cells transiently expressing human CLDN2
T2 construct: whole, on cells; also called hCLDN2
T2 sequence (looked up): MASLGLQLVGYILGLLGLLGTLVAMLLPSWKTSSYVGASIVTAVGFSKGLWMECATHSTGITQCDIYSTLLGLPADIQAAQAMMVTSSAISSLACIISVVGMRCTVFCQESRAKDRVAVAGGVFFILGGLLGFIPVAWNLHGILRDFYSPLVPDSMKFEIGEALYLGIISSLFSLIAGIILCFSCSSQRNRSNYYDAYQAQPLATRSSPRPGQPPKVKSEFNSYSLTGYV
Method: as §1

human CLDN18.2 [3] = molecular target: T3, human CLDN18.2 (human); assay: FACS on NUGC4_D8 cells
T3 construct: the HEK293 line was made with a GenScript plasmid; also called hCLDN18.2

human CLDN18.2 [4] = molecular target: T3, human CLDN18.2; assay: competition FACS on HEK293/hCLDN18.2 cells; competitor 10 nM biotinylated PR000400
Method: (§2) This example is to study the binding of anti-human CLDN18.2 bispecific antibodies to the epitope region of a human CLDN18.2 antigen. Competitive binding experiments were performed at the cellular level using human CLDN18.2-overexpressing HEK293/hCLDN18.2 cells. […] The mixture was well mixed and incubated at 4° C. for 30 min. 25 μL of the corresponding serially diluted non-biotinylated anti-human CLDN18.2 antibody was added. The mixture was well mixed and incubated at 4° C. for 1 h. The cells in each well were washed twice with 200 μL of pre-cooled FACS buffer (2% BSA in DPBS) and centrifuged at 500 g at 4° C. for 5 min, and then the supernatant was discarded. A fluorescent secondary antibody (Jackson ImmunoResearch, 016-540-084, 1:500) was added. The mixture was incubated at 4° C. in the absence of light for 1 h. The cells in each well were washed twice with 200 μL of pre-cooled FACS buffer (2% BSA in DPBS) and centrifuged at 500 g at 4° C. for 5 min, and then the supernatant was discarded. Finally, the cells in each well were resuspended in 200 μL of pre-cooled FACS buffer, and the fluorescence signal values were read using a ACEA_NovoCyte.

human CLDN1 = molecular target: T4, human CLDN1 (human, UniProt O95832 1-211); assay: FACS on HEK293 cells transiently expressing human CLDN1
T4 construct: whole, on cells; also called hCLDN1
T4 sequence (looked up): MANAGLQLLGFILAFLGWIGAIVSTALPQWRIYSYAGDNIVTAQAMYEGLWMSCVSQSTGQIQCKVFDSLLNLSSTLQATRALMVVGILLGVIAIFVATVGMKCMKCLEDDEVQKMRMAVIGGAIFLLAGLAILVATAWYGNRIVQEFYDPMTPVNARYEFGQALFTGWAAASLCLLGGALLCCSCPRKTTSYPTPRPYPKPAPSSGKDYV
Method: as §1

Human FcRn = Human FcRn (human, UniProt P55899 24-297; P61769 21-119); assay: BLI (Octet), antibody on FAB2G sensor, pH 6.0, 1:1 global fit; pH 6.0; 400-25 nM
Human FcRn, sequence (P55899 24-297 limits assumed, chain 1 of 2): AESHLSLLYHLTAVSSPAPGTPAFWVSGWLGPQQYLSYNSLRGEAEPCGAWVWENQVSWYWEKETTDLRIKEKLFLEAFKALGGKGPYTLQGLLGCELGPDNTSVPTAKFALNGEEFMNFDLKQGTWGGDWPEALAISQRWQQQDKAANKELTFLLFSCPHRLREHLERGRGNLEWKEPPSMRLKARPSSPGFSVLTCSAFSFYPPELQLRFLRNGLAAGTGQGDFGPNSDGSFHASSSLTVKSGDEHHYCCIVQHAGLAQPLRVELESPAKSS
Human FcRn, sequence (P61769 21-119 limits assumed, chain 2 of 2): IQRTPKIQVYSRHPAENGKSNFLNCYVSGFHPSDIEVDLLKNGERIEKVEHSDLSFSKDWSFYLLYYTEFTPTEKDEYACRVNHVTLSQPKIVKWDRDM
Method: The binding kinetics between proteins and antibodies was analyzed by the Biolayer Interferometry (BLI) technique using an Octet Red 96e (Fortebio) system. The rotation speed was set at 1000 rpm for the system. […] After equilibrated in the buffer for 120 s, the FAB2G sensor was allowed to bind to 2-fold serially diluted human Fc receptor protein. Finally, the FAB2G sensor was immersed in a 10 mM glycine-hydrochloric acid solution at pH 1.5 for regeneration to elute the proteins bound to the sensor. The affinity assays of antibodies for FcRn were performed under the conditions of both pH 6.0 buffer and pH 7.4 buffer. […] For the interactions of fast binding and fast dissociation, the “steady state” method was selected to fit the data to obtain KD(M) values.

human CLDN18.2 [5] = molecular target: T3, human CLDN18.2; assay: FACS on HEK293/hCLDN18.2 cells
Method: Antibodies were assayed for binding affinity by FACS. Test cells include HEK293/hCLDN18.2, HEK293/hCLDN18.1, NUGC4_D8 and Jurkat cells. […] The cell density was adjusted to 10⁶ cells/mL, and 50 μL of the cell suspension was added to each well of a 96-well plate. Antibodies were diluted to different concentrations with FACS buffer, and 50 μL of the antibody dilution was added to each well of the 96-well plate. After 2 h of incubation at 4° C., the plate was washed twice with FACS buffer. […] After 1 h of incubation at 4° C., the plate was washed twice with FACS buffer. The cells were resuspended in fixative solution, and then the fluorescence of the cells was monitored using an FACS instrument (ACEA NovoCyte).

human CLDN9 = molecular target: T5, human CLDN9 (human, UniProt O95484 1-217); assay: FACS on HEK293 cells transiently expressing human CLDN9
T5 construct: whole, on cells; also called hCLDN9
T5 sequence (looked up): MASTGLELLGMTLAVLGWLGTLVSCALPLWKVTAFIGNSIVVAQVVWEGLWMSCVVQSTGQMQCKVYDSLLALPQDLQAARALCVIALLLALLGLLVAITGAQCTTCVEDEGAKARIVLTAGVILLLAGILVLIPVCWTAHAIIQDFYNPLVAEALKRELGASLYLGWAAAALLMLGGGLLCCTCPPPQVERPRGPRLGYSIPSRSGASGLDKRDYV
Method: as §1

human CLDN3 = molecular target: T6, human CLDN3 (human, UniProt O15551 1-220); assay: FACS on HEK293 cells transiently expressing human CLDN3
T6 construct: whole, on cells; also called hCLDN3
T6 sequence (looked up): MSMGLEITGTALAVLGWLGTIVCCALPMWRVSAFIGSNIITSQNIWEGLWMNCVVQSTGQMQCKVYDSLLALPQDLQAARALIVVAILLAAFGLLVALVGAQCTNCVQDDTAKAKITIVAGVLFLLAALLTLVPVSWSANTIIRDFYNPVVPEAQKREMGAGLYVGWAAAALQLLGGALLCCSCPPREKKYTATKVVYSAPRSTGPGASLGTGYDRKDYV
Method: as §1

human CLDN18.2 [6] = molecular target: T3, human CLDN18.2; assay: competition FACS on HEK293/hCLDN18.2 cells; competitor 200 nM biotinylated PR004549
Method: as §2

[7] = molecular target: T7, Biotinylated cynomolgus CD3E&D (cynomolgus, UniProt Q95LI5 22-117; Q95LI8 22-105, biotin label); assay: BLI (Octet), biotinylated CD3 on SA sensor, 1:1 global fit;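 further: antibodies applied as analyte in 2-fold serial dilutions, with a 180 s association phase followed by a 300 s dissociation phase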
T7 construct: also called CDD-C82W6
T7 sequence (Q95LI8 22-105, one chain of several): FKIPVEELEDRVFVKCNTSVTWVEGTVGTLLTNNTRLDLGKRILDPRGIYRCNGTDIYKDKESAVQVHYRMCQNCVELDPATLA

[8] = molecular target: T8, Human CD3E (Acro, CDE-H5223) (human, UniProt P07766 23-126, biotinylated (mixed with biotin 1:3)); assay: as above
T8 construct: also called Human CD3Ec
T8 sequence (P07766 23-126 limits assumed): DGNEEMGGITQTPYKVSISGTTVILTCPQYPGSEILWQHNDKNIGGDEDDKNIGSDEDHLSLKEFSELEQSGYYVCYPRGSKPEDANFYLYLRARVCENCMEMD

[9] = molecular target: T9, Cynomolgus CD3E (Acro, CDE-C5226) (cynomolgus, UniProt Q95LI5 22-117, biotinylated (mixed with biotin 1:3)); assay: as above
T9 sequence (looked up): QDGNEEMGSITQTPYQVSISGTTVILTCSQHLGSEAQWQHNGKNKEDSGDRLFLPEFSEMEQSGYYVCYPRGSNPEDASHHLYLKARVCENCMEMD

[10] = molecular target: T10, Biotinylated human CD3E&D (human, UniProt P07766 23-126; P04234 22-105, biotin label); assay: as above
T10 construct: also called CDD-H82W6
T10 sequence (P07766 23-126, chain 1 of 2): as the sequence (P07766 23-126 limits assumed) above
T10 sequence (P04234 22-105, chain 2 of 2): as the sequence (Q95LI8 22-105, one chain of several) above, with V5I, K15N, V20I, T32S, N33D, N34I, A64T, N74S, L83V counted along it

B1: PR006292 (bispecific antibody, human IgG1, lambda)
chain: EVQLVESGGGLVQPGGSLRLSCAASGFTFSSYWMHWVRQVPGKGLVWVSRISSDASRTIYADSVKGRFTISRDNAKNTLYLQMNSLRAEDTAVYYCARGEDHDILTGYPIRGQGTTVTVSSGGGGSGGGGSGGGGSEVQLVESGGGLVQPGGSLRLSCAASGFTFSSYWMHWVRQVPGKGLVWVSRISSDASRTIYADSVKGRFTISRDNAKNTLYLQMNSLRAEDTAVYYCARGEDHDILTGYPIRGQGTTVTVSSASEPKSSDKTHTCPPCPAPEAAGAPSVFLFPPKPKDTLMISRTPEVTCVVVDVSHEDPEVKFNWYVDGVEVHNAKTKPREEQYNSTYRVVSVLTVLHQDWLNGKEYKCKVSNKALPAPIEKTISKAKGQPREPQVCTLPPSREEMTKNQVSLSCAVKGFYPSDIAVEWESNGQPENNYKTTPPVLDSDGSFFLVSKLTVDKSRWQQGNVFSCSVMHEALHNHYTQKSLSLSPGK
heavy: EVQLVESGGGLVQPGGSLKLSCAASGFTFSTYAMNWVRQASGKGLEWVGRIRSKYNNYATYYADSVKDRFTISRDDSKNTAYLQMNSLKTEDTAVYYCTRHGNFGNSYVSWFAYWGQGTLVTVSSASTKGPSVFPLAPSSKSTSGGTAALGCLVKDYFPEPVTVSWNSGALTSGVHTFPAVLQSSGLYSLSSVVTVPSSSLGTQTYICNVNHKPSNTKVDKKVEPKSCDKTHTCPPCPAPEAAGAPSVFLFPPKPKDTLMISRTPEVTCVVVDVSHEDPEVKFNWYVDGVEVHNAKTKPREEQYNSTYRVVSVLTVLHQDWLNGKEYKCKVSNKALPAPIEKTISKAKGQPREPQVYTLPPCREEMTKNQVSLWCLVKGFYPSDIAVEWESNGQPENNYKTTPPVLDSDGSFFLYSKLTVDKSRWQQGNVFSCSVMHEALHNHYTQKSLSLSPGK
light: QAVVTQEPSLTVSPGGTVTLTCRSSTGAVTTSNYANWVQQKPGQAPRGLIGGTNKRAPWTPARFSGSLLGDKAALTLLGAQPEDEAEYFCALWYSNLWVFGGGTKLTVLGQPKAAPSVTLFPPSSEELQANKATLVCLISDFYPGAVTVAWKADSSPVKAGVETTTPSKQSNNKYAASSYLSLTPEQWKSHRSYSCQVTHEGSTVEKTVAPTECS
notes: structure 1; CD3 Fab from PR003886, CLDN18.2 VH from PR007245; IgG1 knob/hole, AAA (L234A, L235A, G237A)
In the case of B1, the binding result (human CLDN6) is reported as “no binding”, the “TDCC, Titer EC50 (pM), NUGC4_D8” value (human CLDN18.2 [1]) is reported as 185 pM and the “TDCC, Titer EC50 (pM), SNU620” value [2] is reported as 113 pM. The binding result (human CLDN2) was “no binding”, the EC50 (human CLDN18.2 [3]) was 0.0701 µM and the IC50 (human CLDN18.2 [4]) was 0.0877 µM. The “Maximum inhibition rate (%)” value (human CLDN18.2 [4]) was 97.7%, the binding result (human CLDN1) was “no binding” and the Kd (Human FcRn) was 0.2 µM. It also gave a koff (Human FcRn) of 0.0609 s⁻¹, a kon (Human FcRn) of 305000 M⁻¹ s⁻¹ and an EC50 (human CLDN18.2 [5]) of 0.0115 µM. For the same binder, the binding result (human CLDN9) was “no binding”, the binding result (human CLDN3) was “no binding” and the IC50 (human CLDN18.2 [6]) was 0.0708 µM. For the same binder, the “Maximum inhibition rate (%)” value (human CLDN18.2 [6]) was 48.1%, the Kd [7] was 0.113 µM and the koff [7] was 0.00965 s⁻¹. The kon [7] was 85700 M⁻¹ s⁻¹, the Kd [8] was 0.099 µM and the koff [8] was 0.00978 s⁻¹. The kon [8] was 98900 M⁻¹ s⁻¹, the Kd [9] was 0.14 µM and the koff [9] was 0.0105 s⁻¹. For the same binder, the kon [9] was 75100 M⁻¹ s⁻¹, the Kd [10] was 0.144 µM and the koff [10] was 0.0122 s⁻¹. It also gave a kon [10] of 84700 M⁻¹ s⁻¹.

B2: PR006384 (bispecific antibody, human IgG1, lambda)
chain: EVQLVESGGGLVQPGGSLRLSCAASGFTFSSYWMHWVRQVPGKGLVWVSRISSTGSRTIYADSVKGRFTISRDNAKNTLYLQMNSLRAEDTAVYYCARGEDHDILTGYPIRGQGTTVTVSSGGGGSGGGGSGGGGSEVQLVESGGGLVQPGGSLRLSCAASGFTFSSYWMHWVRQVPGKGLVWVSRISSTGSRTIYADSVKGRFTISRDNAKNTLYLQMNSLRAEDTAVYYCARGEDHDILTGYPIRGQGTTVTVSSASEPKSSDKTHTCPPCPAPEAAGAPSVFLFPPKPKDTLMISRTPEVTCVVVDVSHEDPEVKFNWYVDGVEVHNAKTKPREEQYNSTYRVVSVLTVLHQDWLNGKEYKCKVSNKALPAPIEKTISKAKGQPREPQVCTLPPSREEMTKNQVSLSCAVKGFYPSDIAVEWESNGQPENNYKTTPPVLDSDGSFFLVSKLTVDKSRWQQGNVFSCSVMHEALHNHYTQKSLSLSPGK
heavy: EVQLVESGGGLVQPGGSLKLSCAASGFTFSTYAMNWVRQASGKGLEWVGRIRSKYNNYATYYADSVKDRFTISRDDSKNTAYLQMNSLKTEDTAVYYCTRHGNFGNSYVSWFAYWGQGTLVTVSSASTKGPSVFPLAPSSKSTSGGTAALGCLVKDYFPEPVTVSWNSGALTSGVHTFPAVLQSSGLYSLSSVVTVPSSSLGTQTYICNVNHKPSNTKVDKKVEPKSCDKTHTCPPCPAPEAAGAPSVFLFPPKPKDTLMISRTPEVTCVVVDVSHEDPEVKFNWYVDGVEVHNAKTKPREEQYNSTYRVVSVLTVLHQDWLNGKEYKCKVSNKALPAPIEKTISKAKGQPREPQVYTLPPCREEMTKNQVSLWCLVKGFYPSDIAVEWESNGQPENNYKTTPPVLDSDGSFFLYSKLTVDKSRWQQGNVFSCSVMHEALHNHYTQKSLSLSPGK
light: QAVVTQEPSLTVSPGGTVTLTCRSSTGAVTTSNYANWVQQKPGQAPRGLIGGTNKRAPWTPARFSGSLLGDKAALTLLGAQPEDEAEYFCALWYSNLWVFGGGTKLTVLGQPKAAPSVTLFPPSSEELQANKATLVCLISDFYPGAVTVAWKADSSPVKAGVETTTPSKQSNNKYAASSYLSLTPEQWKSHRSYSCQVTHEGSTVEKTVAPTECS
notes: structure 1; CD3 Fab from PR003886, CLDN18.2 VH from PR007246; AAA
For B2, the binding result (human CLDN6) was “no binding”, the “TDCC, Titer EC50 (pM), IM95” value (human CLDN18.2 [1]) was 938 pM and the “TDCC, Titer EC50 (pM), NUGC4_D8” value (human CLDN18.2 [1]) was 57.9 pM. For the same binder, the “TDCC, Titer EC50 (pM), SNU620” value [2] was 57.1 pM, the binding result (human CLDN2) was “no binding” and the EC50 (human CLDN18.2 [3]) was 0.0514 µM. The IC50 (human CLDN18.2 [4]) was 0.103 µM, the “Maximum inhibition rate (%)” value (human CLDN18.2 [4]) was 97.8% and the binding result (human CLDN1) was “no binding”. It also gave a Kd (Human FcRn) of 0.21 µM, a koff (Human FcRn) of 0.0608 s⁻¹ and a kon (Human FcRn) of 289000 M⁻¹ s⁻¹. The EC50 (human CLDN18.2 [5]) was 0.0144 µM, the binding result (human CLDN9) was “no binding” and the binding result (human CLDN3) was “no binding”. The IC50 (human CLDN18.2 [6]) was 0.0567 µM, the “Maximum inhibition rate (%)” value (human CLDN18.2 [6]) was 48.5% and the Kd [7] was 0.152 µM. The koff [7] was 0.00942 s⁻¹, the kon [7] was 62200 M⁻¹ s⁻¹ and the Kd [8] was 0.151 µM. The koff [8] was 0.0129 s⁻¹, the kon [8] was 85400 M⁻¹ s⁻¹ and the Kd [9] was 0.165 µM. The koff [9] was 0.0122 s⁻¹, the kon [9] was 74000 M⁻¹ s⁻¹ and the Kd [10] was 0.132 µM. It also gave a koff [10] of 0.0119 s⁻¹ and a kon [10] of 90200 M⁻¹ s⁻¹.
